Experiment [1] has as its target DtpA, A-type dye-decolorizing peroxidase from Streptomyces lividans (Streptomyces lividans). Put plainly: AUC; sedimentation velocity, absorbance at 410 nm, 40,000 rpm, 20°C, 50 mM HEPES pH 7.0, 100 mM NaCl, protein 0.75-0.85 μM, c(S) model in SEDFIT.
Experiment [2] addresses DtpAa, A-type dye-decolorizing peroxidase from Streptomyces lividans (Streptomyces lividans). The experiment is described as above.
The target of experiment [3] is DtpB, B-type dye-decolorizing peroxidase from Streptomyces lividans (Streptomyces lividans). Put plainly: cryo-EM structure; single particle, Titan Krios 300 kV, DtpB ~6 mg/mL with 8 mM CHAPSO, D3 symmetry imposed, 3.02 Å map of the hexamer.
Experiment [4] shares this target. Description: AUC; sedimentation velocity, absorbance at 410 nm, 40,000 rpm, 20°C, 50 mM HEPES pH 7.0, 100 mM NaCl, protein 0.75-0.85 μM, c(S) model in SEDFIT.
Experiment [5] shares this target. Put plainly: cryo-EM structure; single particle, Talos Arctica 200 kV, DtpB ~6 mg/mL with 8 mM CHAPSO, C1 symmetry, low resolution maps of quasi-hexamer (14.5 Å) and dodecamer (13.4 Å).

Values joined by “and” are separate entries in the source; they are usually repeats but may differ in a detail not shown here. Equal values may be shown once.

For “DtpA, A-type dye-decolorizing peroxidase from Streptomyces lividans (enzyme)”, in experiment [1], the proportion of the sedimenting species (ratio), species 1, dimer worked out at 76; the proportion of the sedimenting species (ratio), species 2, tetramer is 13; the stoichiometry N was 2 and 4.
Substance “DtpAa, A-type dye-decolorizing peroxidase from Streptomyces lividans (enzyme)” gave a stoichiometry N in experiment [2] of 2.
With “DtpB, B-type dye-decolorizing peroxidase from Streptomyces lividans (enzyme)”, the stoichiometry N in experiment [3] came out at 6. Besides, in experiment [4], the proportion of the sedimenting species (ratio), species 1, dimer stood at 2.5; the proportion of the sedimenting species (ratio), species 2, hexamer came out at 82; the proportion of the sedimenting species (ratio), species 3, dodecamer is 10. The stoichiometry N in experiment [5] amounted to 12.

Values taken from publication PMC11168072.
